This note sets out measurements from patent publication US6368809.

The assay concerns the target HA-epitope tagged E2F-4 (human) (UniProt Q16254). Kind of assay: cell-based or functional assay.
Sequence of UniProt Q16254 (Q16254 whole entry): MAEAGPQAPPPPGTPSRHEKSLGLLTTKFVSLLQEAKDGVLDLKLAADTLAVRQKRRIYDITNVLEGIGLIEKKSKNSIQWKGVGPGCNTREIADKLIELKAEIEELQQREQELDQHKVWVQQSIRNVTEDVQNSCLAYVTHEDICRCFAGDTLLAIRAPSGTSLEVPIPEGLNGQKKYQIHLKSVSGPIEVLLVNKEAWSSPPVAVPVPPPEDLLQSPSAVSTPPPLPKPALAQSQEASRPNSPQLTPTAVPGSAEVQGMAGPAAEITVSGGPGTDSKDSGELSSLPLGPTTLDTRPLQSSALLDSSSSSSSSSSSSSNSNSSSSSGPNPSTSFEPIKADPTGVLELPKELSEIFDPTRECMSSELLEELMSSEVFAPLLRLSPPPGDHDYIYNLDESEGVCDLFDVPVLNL

“HA-tagged p107 (from UniProt P28749 1-1068)” yielded an E2F-4 half life (pulse chase, immunoprecipitation with 12CA5, phosphorimager; free E2-F4 approximately 2-3 hours) of 8 h.
